Source: patent US20230158141A1 (YAFEI SHANGHAI BIOLOG MEDICINE SCIENCE AND TECHNOLOGY, published 2023)

T1: IL-10R1-Fc (UniProt Q13651 22-235, limits assumed)
T1 sequence (looked up): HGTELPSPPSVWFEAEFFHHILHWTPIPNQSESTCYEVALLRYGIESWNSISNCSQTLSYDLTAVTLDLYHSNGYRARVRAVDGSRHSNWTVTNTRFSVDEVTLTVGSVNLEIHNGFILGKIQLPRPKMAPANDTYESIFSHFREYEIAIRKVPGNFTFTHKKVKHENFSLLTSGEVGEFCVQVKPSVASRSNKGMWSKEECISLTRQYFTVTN

T2: IL-10R2-Fc/His (UniProt Q08334 20-220, limits assumed)
T2 sequence (looked up): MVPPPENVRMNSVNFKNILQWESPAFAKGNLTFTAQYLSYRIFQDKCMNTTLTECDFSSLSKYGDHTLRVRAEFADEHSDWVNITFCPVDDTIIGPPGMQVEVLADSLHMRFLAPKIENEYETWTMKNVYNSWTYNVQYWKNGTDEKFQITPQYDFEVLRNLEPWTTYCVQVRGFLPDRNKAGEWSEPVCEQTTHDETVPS


Assays:
IL-10R1-Fc = target: T1, IL-10R1-Fc; experiment: ELISA, IL-10R1-Fc coated
IL-10R2-Fc/His = target: T2, IL-10R2-Fc/His; experiment: ELISA, IL-10R2-Fc/His coated

| Binding recovery (>60%) (IL-10R1-Fc) | Binding recovery (>60%) (IL-10R2-Fc/His) | Decreased fold of binding to ligand after Conjugating with S48 (IL-10R2-Fc/His) | Decreased fold of binding to ligand after Conjugating with S48 (IL-10R1-Fc) | Binder |
| --- | --- | --- | --- | --- |
| 90% | 98.1% |  |  | IL-10 Arg24Cys-R4-20 (ligand, human, UniProt P22301 19-178, looked up, R4-20 on Cys 24, mature) SPGQGTQSENSCTHFPGNLPNMLCDLRDAFSRVKTFFQMKDQLDNLLLKESLLEDFKGYLGCQALSEMIQFYLEEVMPQAENQDPDIKAHVNSLGENLKTLRLRLRRCHRFLPCENKSKAVEQVKNAFNKLQEKGIYKAMSEFDIFINYIEAYMTMKIRN |
|  |  | 3 fold |  | IL-10 Phe15Cys-S48 (ligand, human, UniProt P22301 19-178, looked up, S48 on Cys 15, mature) SPGQGTQSENSCTHCPGNLPNMLRDLRDAFSRVKTFFQMKDQLDNLLLKESLLEDFKGYLGCQALSEMIQFYLEEVMPQAENQDPDIKAHVNSLGENLKTLRLRLRRCHRFLPCENKSKAVEQVKNAFNKLQEKGIYKAMSEFDIFINYIEAYMTMKIRN |
|  |  | 3 fold |  | IL-10 Lys88Cys-S48 (ligand, human, UniProt P22301 19-178, looked up, S48 on Cys 88, mature) SPGQGTQSENSCTHFPGNLPNMLRDLRDAFSRVKTFFQMKDQLDNLLLKESLLEDFKGYLGCQALSEMIQFYLEEVMPQAENQDPDICAHVNSLGENLKTLRLRLRRCHRFLPCENKSKAVEQVKNAFNKLQEKGIYKAMSEFDIFINYIEAYMTMKIRN |
|  |  | 9 fold | 33 fold | IL-10 Arg24Cys-S48 (ligand, human, UniProt P22301 19-178, looked up, S48 on Cys 24, mature) SPGQGTQSENSCTHFPGNLPNMLCDLRDAFSRVKTFFQMKDQLDNLLLKESLLEDFKGYLGCQALSEMIQFYLEEVMPQAENQDPDIKAHVNSLGENLKTLRLRLRRCHRFLPCENKSKAVEQVKNAFNKLQEKGIYKAMSEFDIFINYIEAYMTMKIRN |
|  | 123% |  |  | IL-10 Thr35Cys-R4-5 (ligand, human, UniProt P22301 19-178, looked up, R4-5 on Cys 35, mature) SPGQGTQSENSCTHFPGNLPNMLRDLRDAFSRVKCFFQMKDQLDNLLLKESLLEDFKGYLGCQALSEMIQFYLEEVMPQAENQDPDIKAHVNSLGENLKTLRLRLRRCHRFLPCENKSKAVEQVKNAFNKLQEKGIYKAMSEFDIFINYIEAYMTMKIRN |
|  |  | 3 fold |  | IL-10 Leu103Cys-S48 (ligand, human, UniProt P22301 19-178, looked up, S48 on Cys 103, mature) SPGQGTQSENSCTHFPGNLPNMLRDLRDAFSRVKTFFQMKDQLDNLLLKESLLEDFKGYLGCQALSEMIQFYLEEVMPQAENQDPDIKAHVNSLGENLKTLRCRLRRCHRFLPCENKSKAVEQVKNAFNKLQEKGIYKAMSEFDIFINYIEAYMTMKIRN |
|  | 79.6% |  |  | IL-10 Phe36Cys-R4-8 (ligand, human, UniProt P22301 19-178, looked up, R4-8 on Cys 36, mature) SPGQGTQSENSCTHFPGNLPNMLRDLRDAFSRVKTCFQMKDQLDNLLLKESLLEDFKGYLGCQALSEMIQFYLEEVMPQAENQDPDIKAHVNSLGENLKTLRLRLRRCHRFLPCENKSKAVEQVKNAFNKLQEKGIYKAMSEFDIFINYIEAYMTMKIRN |
|  |  | 6 fold | 7 fold | IL-10 Asn21Cys-S48 (ligand, human, UniProt P22301 19-178, looked up, S48 on Cys 21, mature) SPGQGTQSENSCTHFPGNLPCMLRDLRDAFSRVKTFFQMKDQLDNLLLKESLLEDFKGYLGCQALSEMIQFYLEEVMPQAENQDPDIKAHVNSLGENLKTLRLRLRRCHRFLPCENKSKAVEQVKNAFNKLQEKGIYKAMSEFDIFINYIEAYMTMKIRN |
|  | 117% |  |  | IL-10 Lys99Cys-R4-7 (ligand, human, UniProt P22301 19-178, looked up, R4-7 on Cys 99, mature) SPGQGTQSENSCTHFPGNLPNMLRDLRDAFSRVKTFFQMKDQLDNLLLKESLLEDFKGYLGCQALSEMIQFYLEEVMPQAENQDPDIKAHVNSLGENLCTLRLRLRRCHRFLPCENKSKAVEQVKNAFNKLQEKGIYKAMSEFDIFINYIEAYMTMKIRN |
|  | 99% |  |  | IL-10 Lys88Cys-R4-7 (ligand, human, UniProt P22301 19-178, looked up, R4-7 on Cys 88, mature) SPGQGTQSENSCTHFPGNLPNMLRDLRDAFSRVKTFFQMKDQLDNLLLKESLLEDFKGYLGCQALSEMIQFYLEEVMPQAENQDPDICAHVNSLGENLKTLRLRLRRCHRFLPCENKSKAVEQVKNAFNKLQEKGIYKAMSEFDIFINYIEAYMTMKIRN |
| 90.4% | 89.6% |  |  | IL-10 Arg32Cys-R4-7 (ligand, human, UniProt P22301 19-178, looked up, R4-7 on Cys 32, mature) SPGQGTQSENSCTHFPGNLPNMLRDLRDAFSCVKTFFQMKDQLDNLLLKESLLEDFKGYLGCQALSEMIQFYLEEVMPQAENQDPDIKAHVNSLGENLKTLRLRLRRCHRFLPCENKSKAVEQVKNAFNKLQEKGIYKAMSEFDIFINYIEAYMTMKIRN |
|  |  | 4 fold | 12 fold | IL-10 Asn18Cys-S48 (ligand, human, UniProt P22301 19-178, looked up, S48 on Cys 18, mature) SPGQGTQSENSCTHFPGCLPNMLRDLRDAFSRVKTFFQMKDQLDNLLLKESLLEDFKGYLGCQALSEMIQFYLEEVMPQAENQDPDIKAHVNSLGENLKTLRLRLRRCHRFLPCENKSKAVEQVKNAFNKLQEKGIYKAMSEFDIFINYIEAYMTMKIRN |
| 94.5% | 80.7% |  |  | IL-10 Asn97Cys-R4-18 (ligand, human, UniProt P22301 19-178, looked up, R4-18 on Cys 97, mature) SPGQGTQSENSCTHFPGNLPNMLRDLRDAFSRVKTFFQMKDQLDNLLLKESLLEDFKGYLGCQALSEMIQFYLEEVMPQAENQDPDIKAHVNSLGECLKTLRLRLRRCHRFLPCENKSKAVEQVKNAFNKLQEKGIYKAMSEFDIFINYIEAYMTMKIRN |
|  | 91.4% |  |  | IL-10 Val33Cys-R4-7 (ligand, human, UniProt P22301 19-178, looked up, R4-7 on Cys 33, mature) SPGQGTQSENSCTHFPGNLPNMLRDLRDAFSRCKTFFQMKDQLDNLLLKESLLEDFKGYLGCQALSEMIQFYLEEVMPQAENQDPDIKAHVNSLGENLKTLRLRLRRCHRFLPCENKSKAVEQVKNAFNKLQEKGIYKAMSEFDIFINYIEAYMTMKIRN |
|  |  | 3 fold |  | IL-10 Lys99Cys-S48 (ligand, human, UniProt P22301 19-178, looked up, S48 on Cys 99, mature) SPGQGTQSENSCTHFPGNLPNMLRDLRDAFSRVKTFFQMKDQLDNLLLKESLLEDFKGYLGCQALSEMIQFYLEEVMPQAENQDPDIKAHVNSLGENLCTLRLRLRRCHRFLPCENKSKAVEQVKNAFNKLQEKGIYKAMSEFDIFINYIEAYMTMKIRN |
|  | 89.4% |  |  | IL-10 Leu103Cys-R4-6 (ligand, human, UniProt P22301 19-178, looked up, R4-6 on Cys 103, mature) SPGQGTQSENSCTHFPGNLPNMLRDLRDAFSRVKTFFQMKDQLDNLLLKESLLEDFKGYLGCQALSEMIQFYLEEVMPQAENQDPDIKAHVNSLGENLKTLRCRLRRCHRFLPCENKSKAVEQVKNAFNKLQEKGIYKAMSEFDIFINYIEAYMTMKIRN |
|  |  | 7 fold | 8 fold | IL-10 His90Cys-S48 (ligand, human, UniProt P22301 19-178, looked up, S48 on Cys 90, mature) SPGQGTQSENSCTHFPGNLPNMLRDLRDAFSRVKTFFQMKDQLDNLLLKESLLEDFKGYLGCQALSEMIQFYLEEVMPQAENQDPDIKACVNSLGENLKTLRLRLRRCHRFLPCENKSKAVEQVKNAFNKLQEKGIYKAMSEFDIFINYIEAYMTMKIRN |
| 99.7% | 85.3% |  |  | IL-10 Asn21Cys-R4-18 (ligand, human, UniProt P22301 19-178, looked up, R4-18 on Cys 21, mature) SPGQGTQSENSCTHFPGNLPCMLRDLRDAFSRVKTFFQMKDQLDNLLLKESLLEDFKGYLGCQALSEMIQFYLEEVMPQAENQDPDIKAHVNSLGENLKTLRLRLRRCHRFLPCENKSKAVEQVKNAFNKLQEKGIYKAMSEFDIFINYIEAYMTMKIRN |
|  |  | 3 fold |  | IL-10 Leu101Cys-S48 (ligand, human, UniProt P22301 19-178, looked up, S48 on Cys 101, mature) SPGQGTQSENSCTHFPGNLPNMLRDLRDAFSRVKTFFQMKDQLDNLLLKESLLEDFKGYLGCQALSEMIQFYLEEVMPQAENQDPDIKAHVNSLGENLKTCRLRLRRCHRFLPCENKSKAVEQVKNAFNKLQEKGIYKAMSEFDIFINYIEAYMTMKIRN |
|  |  | 3 fold |  | IL-10 Val33Cys-S48 (ligand, human, UniProt P22301 19-178, looked up, S48 on Cys 33, mature) SPGQGTQSENSCTHFPGNLPNMLRDLRDAFSRCKTFFQMKDQLDNLLLKESLLEDFKGYLGCQALSEMIQFYLEEVMPQAENQDPDIKAHVNSLGENLKTLRLRLRRCHRFLPCENKSKAVEQVKNAFNKLQEKGIYKAMSEFDIFINYIEAYMTMKIRN |
|  | 91% |  |  | IL-10 Leu101Cys-R4-6 (ligand, human, UniProt P22301 19-178, looked up, R4-6 on Cys 101, mature) SPGQGTQSENSCTHFPGNLPNMLRDLRDAFSRVKTFFQMKDQLDNLLLKESLLEDFKGYLGCQALSEMIQFYLEEVMPQAENQDPDIKAHVNSLGENLKTCRLRLRRCHRFLPCENKSKAVEQVKNAFNKLQEKGIYKAMSEFDIFINYIEAYMTMKIRN |
|  |  | 5 fold | 3 fold | IL-10 Arg107Cys-S48 (ligand, human, UniProt P22301 19-178, looked up, S48 on Cys 107, mature) SPGQGTQSENSCTHFPGNLPNMLRDLRDAFSRVKTFFQMKDQLDNLLLKESLLEDFKGYLGCQALSEMIQFYLEEVMPQAENQDPDIKAHVNSLGENLKTLRLRLRCCHRFLPCENKSKAVEQVKNAFNKLQEKGIYKAMSEFDIFINYIEAYMTMKIRN |
|  |  | 6 fold | 3 fold | IL-10 Arg104Cys-S48 (ligand, human, UniProt P22301 19-178, looked up, S48 on Cys 104, mature) SPGQGTQSENSCTHFPGNLPNMLRDLRDAFSRVKTFFQMKDQLDNLLLKESLLEDFKGYLGCQALSEMIQFYLEEVMPQAENQDPDIKAHVNSLGENLKTLRLCLRRCHRFLPCENKSKAVEQVKNAFNKLQEKGIYKAMSEFDIFINYIEAYMTMKIRN |
|  |  | 3 fold |  | IL-10 Phe36Cys-S48 (ligand, human, UniProt P22301 19-178, looked up, S48 on Cys 36, mature) SPGQGTQSENSCTHFPGNLPNMLRDLRDAFSRVKTCFQMKDQLDNLLLKESLLEDFKGYLGCQALSEMIQFYLEEVMPQAENQDPDIKAHVNSLGENLKTLRLRLRRCHRFLPCENKSKAVEQVKNAFNKLQEKGIYKAMSEFDIFINYIEAYMTMKIRN |
